Experimental data from patent US20170275666A1, “Methods for Preparing Rebaudioside I and Uses” (The Coca-Cola Company, priority 2014, published 2017).
Residue numbers refer to the chain shown, from its start. Values joined by “and” are separate entries in the source; they are usually repeats but may differ in a detail not shown here. Identical values can stand only once.

B1: UGT76G1var86: UGT76G1 variant, mutations E224A_T284L_V396F_Y397E_I407V (protein, UniProt Q6VAB4 1-458, looked up, variant E224A T284L V396F Y397E I407V)
UDP-glycosyltransferase 76G1: MENKTETTVRRRRRIILFPVPFQGHINPILQLANVLYSKGFSITIFHTNFNKPKTSNYPHFTFRFILDNDPQDERISNLPTHGPLAGMRIPIINEHGADELRRELELLMLASEEDEEVSCLITDALWYFAQSVADSLNLRRLVLMTSSLFNFHAHVSLPQFDELGYLDPDDKTRLEEQASGFPMLKVKDIKSAYSNWQILKEILGKMIKQTKASSGVIWNSFKALEESELETVIREIPAPSFLIPLPKHLTASSSSLLDHDRTVFQWLDQQPPSSVLYVSFGSLSEVDEKDFLEIARGLVDSKQSFLWVVRPGFVKGSTWVEPLPDGFLGERGRIVKWVPQQEVLAHGAIGAFWTHSGWNSTLESVCEGVPMIFSDFGLDQPLNARYMSDVLKVGFELENGWERGEVANAIRRVMVDEEGEYIRQNARVLKQKADVSLMKGGSSYESLESLVSYISSL
B2: UGT76G1var90: UGT76G1 variant, mutations E231A_S241I_S274G_Y397Q_Q425E (protein, UniProt Q6VAB4 1-458, looked up, variant E231A S241I S274G Y397Q Q425E)
UDP-glycosyltransferase 76G1: B1 UDP-glycosyltransferase 76G1 with A224E, E231A, S241I, S274G, L284T, F396V, E397Q, V407I, Q425E
B3: UGT76G1var93: UGT76G1 variant, mutations I43V_Q266E_S375M_S389E_V394I (protein, UniProt Q6VAB4 1-458, looked up, variant I43V Q266E S375M S389E V394I)
UDP-glycosyltransferase 76G1: B1 UDP-glycosyltransferase 76G1 with I43V, A224E, Q266E, L284T, S375M, S389E, V394I, F396V, E397Y, V407I
B4: UGT76G1var96: UGT76G1 variant, mutations F22L_E229A_L243P_F377C_A385T (protein, UniProt Q6VAB4 1-458, looked up, variant F22L E229A L243P F377C A385T)
UDP-glycosyltransferase 76G1: B1 UDP-glycosyltransferase 76G1 with F22L, A224E, E229A, L243P, L284T, F377C, A385T, F396V, E397Y, V407I
B5: UGT76G1var6: UGT76G1 variant, mutations Q266S_S357N_I373L (protein, UniProt Q6VAB4 1-458, looked up, variant Q266S S357N I373L)
UDP-glycosyltransferase 76G1: B1 UDP-glycosyltransferase 76G1 with A224E, Q266S, L284T, S357N, I373L, F396V, E397Y, V407I
B6: UGT76G1var7: UGT76G1 variant, mutations F22L_I43V_A239V (protein, UniProt Q6VAB4 1-458, looked up, variant F22L I43V A239V)
UDP-glycosyltransferase 76G1: B1 UDP-glycosyltransferase 76G1 with F22L, I43V, A224E, A239V, L284T, F396V, E397Y, V407I
B7: UGT76G1var88: UGT76G1 variant, mutations A239V_T284I_V310I_Q342K_L379A (protein, UniProt Q6VAB4 1-458, looked up, variant A239V T284I V310I Q342K L379A)
UDP-glycosyltransferase 76G1: B1 UDP-glycosyltransferase 76G1 with A224E, A239V, L284I, V310I, Q342K, L379A, F396V, E397Y, V407I
B8: UGT76G1var89: UGT76G1 variant, mutations F41L_E229A_E231A_F265L_P272A (protein, UniProt Q6VAB4 1-458, looked up, variant F41L E229A E231A F265L P272A)
UDP-glycosyltransferase 76G1: B1 UDP-glycosyltransferase 76G1 with F41L, A224E, E229A, E231A, F265L, P272A, L284T, F396V, E397Y, V407I
B9: UGT76G1var92: UGT76G1 variant, mutations K303G_S357N_V366I_V394I_I407V (protein, UniProt Q6VAB4 1-458, looked up, variant K303G S357N V366I V394I I407V)
UDP-glycosyltransferase 76G1: B1 UDP-glycosyltransferase 76G1 with A224E, L284T, K303G, S357N, V366I, V394I, F396V, E397Y
B10: UGT76G1var87: UGT76G1 variant, mutations S241I_L243A_V300A_F314S_N409R (protein, UniProt Q6VAB4 1-458, looked up, variant S241I L243A V300A F314S N409R)
UDP-glycosyltransferase 76G1: B1 UDP-glycosyltransferase 76G1 with A224E, S241I, L243A, L284T, V300A, F314S, F396V, E397Y, V407I, N409R
B11: UGT76G1var95: UGT76G1 variant, mutations A33G_I295M_K303G_I335V_A385T (protein, UniProt Q6VAB4 1-458, looked up, variant A33G I295M K303G I335V A385T)
UDP-glycosyltransferase 76G1: B1 UDP-glycosyltransferase 76G1 with A33G, A224E, L284T, I295M, K303G, I335V, A385T, F396V, E397Y, V407I
B12: UGT76G1var91: UGT76G1 variant, mutations E224A_L246F_T263S_F265I_Q342K (protein, UniProt Q6VAB4 1-458, looked up, variant E224A L246F T263S F265I Q342K)
UDP-glycosyltransferase 76G1: B1 UDP-glycosyltransferase 76G1 with L246F, T263S, F265I, L284T, Q342K, F396V, E397Y, V407I

Key:
[1] = Sensory characteristics of rebaudioside I compared to rebaudioside M (taste panel); assay type: in vivo; conditions: 400 ppm in water, approximately 4° C., seven panelists
Experimental: Rebaudioside I was evaluated to determine its sensory profile, including in comparison to rebaudioside M.
Samples were prepared at a concentration of 400 ppm in a water matrix. Analysis to determine the actual concentration of the samples was preformed.
Seven panelists participated in testing of rebaudioside I and rebaudioside M. Samples were served at approximately 4° C. Panelists were instructed to take 1 sip of the sample (10 mL), hold in mouth for 5 seconds, expectorate and rate the taste attributes, as described below. A 5 minute break was placed between each sample and panelist were instructed to cleanse their palates with at least 1 bite of an unsalted cracker and 2 sips of filtered water. Samples were randomized and each sample was present in replicate in the session.
Attributes evaluated included: sweet taste intensity (maximum level of sweeteness in mouth during 5 seconds); bitter taste intensity (maximum level of bitterness in mouth during 5 seconds); overall maximum sweet intensity (maximum sweet intensity experienced from time sip is taken up to 1 minute); overall maximum bitter intensity (maximum bitter intensity experienced from time sip is taken up to 1 minute); other intensity (intensity of any taste, aromatic or mouth feel other than sweet and bitter (e.g., metallic, plastic, licorice, etc.); sweet linger intensity (sweet intensity 1 minute after expectoring the sample); and bitter aftertaste intensity (bitter intensity one minute after expectoring the sample).
Fishers LSD was used to compare significant differences between the mean scores.

[2] = Taste properties of beverage formulations (flavored black tea, enhanced water, lemon-lime flavored sparkling beverage); assay type: in vivo
Experimental: Reb I levels are evaluated in an zero calorie Lemon-lime-flavored sparking beverage base to determine the effect of increasing sweetness. Samples of the Lemon-lime-flavored sparkling beverage with Reb I in amounts between 400 and 750 ppm (in 50 ppm increments) and 3.5% allulose are prepared. […] Samples having 550 ppm and 600 ppm Reb I are found to be the closest in sweetness level to an 10.0 Brix HFCS sweetened Lemon-lime flavored sparkling beverage formulation.

[3] = Directed evolution of UGT76G1, conversion of Rebaudioside D to Rebaudioside M (round 1); assay type: biochemical; conditions: 0.5 mM Rebaudioside D, 2.5 mM UDP-Glucose, 100 μL fresh lysate, 30° C., pH 7.2
In short: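 Conversion to Reb M and initial rate were measured by HPLC with CAD at 2, 4, 7 and 24 h, with reactions run at 30° C in 50 mM phosphate pH 7.2 containing 0.5 mM Reb D, 2.5 mM UDP-glucose and 3 mM MgCl2. Enzyme source: fresh lysates of E. coli BL21(DE3) expressing 3-5-mutation UGT76G1 variants.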

Row | Molecule | Conversion Reb D to Reb M after 24 h (%) [3] [%] | initial rate (Reb M area/min) [3] [Reb M area/min] | other results
1 | C=C1C[C@@]23CC[C@H]4[C@@](C)(CCC[C@@]4(C)C(=O)OC4OC(CO)C(O)C(OC5OC(CO)C(O)C(O)C5O)C4O)[C@@H]2CCC1(OC1OC(CO)C(O)C(OC2OC(CO)C(O)C(O)C2O)C1OC1OC(CO)C(O)C(O)C1O)C3 (stereo partly drawn) [Reb I] |  |  | Bitter Aftertaste Intensity [1]: 1.3; Bitter Taste Intensity [1]: 1.4; Other Intensity [1]: 1.3; Overall Max Bitterness Intensity [1]: 2.1; Overall Max Sweetness Intensity [1]: 7.2; Sweet Linger Intensity [1]: 3.5; Sweet Taste Intensity [1]: 5.9; Overall Max Sweetness Intensity ([1]; listed as Rebaudioside I): lower; Sweet Linger Intensity ([1]; listed as Rebaudioside I): lower; Sweet Taste Intensity ([1]; listed as Rebaudioside I): lower; taste properties compared to Reb A drink ([2]; flavored zero calorie black tea drink, 275 ppm): much cleaner in finish with less sweetness linger and a more rounded overall sweetness profile; Reb I concentration closest in sweetness level to 10.0 Brix HFCS sweetened Lemon-lime flavored sparkling beverage ([2]; zero calorie Lemon-lime-flavored sparkling beverage with 3.5% allulose): 550 ppm and 600 ppm; taste compared to Reb A-containing formulations ([2]; zero calorie Lemon-lime-flavored sparkling beverage, 400 to 750 ppm Reb I and 3.5% allulose): significantly better than comparable Reb A-containing formulations; taste properties compared to Reb A drink ([2]; zero calorie enhanced water drink, 200 ppm): cleaner in finish and has a reduced sweetness linger and a more rounded overall sweetness taste quality
2 | C=C1C[C@@]23CC[C@H]4[C@@](C)(CCC[C@@]4(C)C(=O)O[C@@H]4O[C@H](CO)[C@@H](O)[C@H](O[C@@H]5O[C@H](CO)[C@@H](O)[C@H](O)[C@H]5O)[C@H]4O[C@@H]4O[C@H](CO)[C@@H](O)[C@H](O)[C@H]4O)[C@@H]2CC[C@]1(O[C@@H]1O[C@H](CO)[C@@H](O)[C@H](O[C@@H]2O[C@H](CO)[C@@H](O)[C@H](O)[C@H]2O)[C@H]1O[C@@H]1O[C@H](CO)[C@@H](O)[C@H](O)[C@H]1O)C3 [Reb M, Rebaudioside M, reference compound] |  |  | Bitter Aftertaste Intensity [1]: 0.8; Bitter Taste Intensity [1]: 1.0; Other Intensity [1]: 0.9; Overall Max Bitterness Intensity [1]: 1.6; Overall Max Sweetness Intensity [1]: 8.0; Sweet Linger Intensity [1]: 4.9; Sweet Taste Intensity [1]: 7.4
3 | B1 | 1.6 | 3.8E+05 | 
4 | B2 | 34.5 | 1.9E+07 | 
5 | B3 | 1.8 | 4.5E+05 | 
6 | B4 | 1.2 | 2.7E+05 | 
7 | B5 | 0.5 | 1.8E+06 | 
8 | B6 | 0.2 | −6.0E+04 | 
9 | B7 | 1.6 | 3.8E+05 | 
10 | B8 | 1.2 | 2.1E+05 | 
11 | B9 | 1.6 | 3.6E+05 | 
12 | B10 | 35.7 | 2.1E+07 | 
13 | B11 | −1.3 | −1.7E+05 | 
14 | B12 | 1.2 | 2.3E+05 | 
